The data set deals with the molecule itself. Description: cryo-EM structure.

B1: hSARM1 (residues 28–724), sample for cryo-EM (enzyme, human, UniProt Q6SZW1 28-724, looked up)
chain: LAVPGPDGGGGTGPWWAAGGRGPREVSPGAGTEVQDALERALPELQQALSALKQAGGARAVGAGLAEVFQLVEEAWLLPAVGREVAQGLCDAIRLDGGLDLLLRLLQAPELETRVQAARLLEQILVAENRDRVARIGLGVILNLAKEREPVELARSVAGILEHMFKHSEETCQRLVAAGGLDAVLYWCRRTDPALLRHCALALGNCALHGGQAVQRRMVEKRAAEWLFPLAFSKEDELLRLHACLAVAVLATNKEVEREVERSGTLALVEPLVASLDPGRFARCLVDASDTSQGRGPDDLQRLVPLLDSNRLEAQCIGAFYLCAEAAIKSLQGKTKVFSDIGAIQSLKRLVSYSTNGTKSALAKRALRLLGEEVPRPILPSVPSWKEAEVQTWLQQIGFSKYCESFREQQVDGDLLLRLTEEELQTDLGMKSGITRKRFFRELTELKTFANYSTCDRSNLADWLGSLDPRFRQYTYGLVSCGLDRSLLHRVSEQQLLEDCGIHLGVHRARILTAAREMLHSPLPCTGGKPSGDTPDVFISYRRNSGSQLASLLKVHLQLHGFSVFIDVEKLEAGKFEDKLIQSVMGARNFVLVLSPGALDKCMQDHDCKDWVHKEIVTALSCGKNIVPIIDGFEWPEPQVLPEDMQAVLTFNGIKWSHEYQEATIEKIIRFLQGRSSRDSSAGSDTSLEGAAPMGPT
For orientation: stoichiometry N means a count of units in the complex or per binding partner. For the protein B1, the “stoichiometry N” value was found to be 8.

Source of the values: PMC9188649 (Molecular cell, 2022).
